According to article PMC3521654, “The Nuclear Chaperone Nucleophosmin Escorts an Epstein-Barr Virus Nuclear Antigen to Establish Transcriptional Cascades for Latent Infection in Human B Cells” (PLoS Pathogens, 2012):

Tests used:
GST-E2 300–360 = target: T1, GST-E2 300–360 (Epstein-Barr virus, UniProt P12978 300-360); assay: pull-down; conditions: one partner purified
T1 construct: source: E. coli BL21 (DE3) pLys, purified (GST-sepharose)
T1 sequence: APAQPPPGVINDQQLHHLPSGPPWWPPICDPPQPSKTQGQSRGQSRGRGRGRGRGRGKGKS

[1] = target: T2, EBNA2 from the transfected expression vector (pSG5-EBNA2, E2) (Epstein-Barr virus, UniProt P12978 1-487); assay: cell-based or functional assay
T2 sequence (looked up): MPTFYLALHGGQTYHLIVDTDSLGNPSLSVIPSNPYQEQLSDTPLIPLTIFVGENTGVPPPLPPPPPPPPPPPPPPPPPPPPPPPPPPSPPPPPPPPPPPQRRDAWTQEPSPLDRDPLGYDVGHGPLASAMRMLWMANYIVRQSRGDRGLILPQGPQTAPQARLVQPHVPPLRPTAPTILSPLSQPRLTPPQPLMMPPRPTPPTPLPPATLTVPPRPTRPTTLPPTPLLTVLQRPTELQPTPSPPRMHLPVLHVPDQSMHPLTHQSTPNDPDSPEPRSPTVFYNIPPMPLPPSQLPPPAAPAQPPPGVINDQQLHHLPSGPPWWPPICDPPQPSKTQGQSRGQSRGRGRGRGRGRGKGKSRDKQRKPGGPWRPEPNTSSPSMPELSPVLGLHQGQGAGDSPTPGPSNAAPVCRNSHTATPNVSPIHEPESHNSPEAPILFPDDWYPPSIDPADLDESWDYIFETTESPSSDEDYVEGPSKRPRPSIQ

B1: flag-tagged NPM1 truncated deletion mutant C3 (1–120) (domain or fragment, UniProt P06748 1-120, looked up)
chain: MEDSMDMDMSPLRPQNYLFGCELKADKDYHFKVDNDENEHQLSLRTVSLGAGAKDELHIVEAEAMNYEGSPIKVTLATLKMSVQPTVSLGGFEITPPVVLRLKCGSGPVHISGQHLVAVE
notes: also called N-terminal oligomerization domain (OD); source: BJAB, transfected, in lysate
percent of input pulled down (GST-E2 300–360): ~2%
co-activation of EBNA2-dependent LMP1-Luc reporter activity in BJAB cells [1]: 2.5 fold

B2: flag-tagged NPM1 truncated deletion mutant C2 (1–194) (domain or fragment, UniProt P06748 1-194, looked up)
chain: MEDSMDMDMSPLRPQNYLFGCELKADKDYHFKVDNDENEHQLSLRTVSLGAGAKDELHIVEAEAMNYEGSPIKVTLATLKMSVQPTVSLGGFEITPPVVLRLKCGSGPVHISGQHLVAVEEDAESEDEEEEDVKLLSISGKRSAPGGGSKVPQKKVKLAADEDDDDDDEEDDDEDDDDDDFDDEEAEEKAPVKK
notes: source: BJAB, transfected, in lysate
percent of input pulled down (GST-E2 300–360): ~2%
co-activation of EBNA2-dependent LMP1-Luc reporter activity in BJAB cells [1]: 2.5 fold
